According to article PMC4982076, “lin28 proteins promote expression of 17∼92 family miRNAs during amphibian development”:

T1: Xrt-lin28a (Xenopus tropicalis, UniProt Q5EB47 34-177)
T1 sequence: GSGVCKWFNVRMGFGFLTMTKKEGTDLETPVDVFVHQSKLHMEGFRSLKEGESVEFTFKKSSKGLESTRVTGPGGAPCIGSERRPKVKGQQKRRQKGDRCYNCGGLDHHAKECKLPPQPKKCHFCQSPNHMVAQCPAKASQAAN


Assays:
[1] = molecular target: T1, Xrt-lin28a; experiment: EMSA; conditions: Bmax 1.017; n=3; 60 mM KCl, 10 mM HEPES pH 7.6, 3 mM MgCl2, 5% glycerol, 1 mM DTT, 5 ug/ul heparin, 150 ng yeast total RNA; 30 min room temperature; 10% native PAGE
[2] = molecular target: T1, Xrt-lin28a; experiment: EMSA; Bmax 0.962; n=3; 60 mM KCl, 10 mM HEPES pH 7.6, 3 mM MgCl2, 5% glycerol, 1 mM DTT, 5 ug/ul heparin, 150 ng yeast total RNA; 30 min room temperature; 10% native PAGE; conditions: protein: recombinant

Row | Molecule | Kd [1] [nM] | Kd [2] [nM]
1 | L-let-7g | 314 | –
2 | UGCAAUUUUAUUUAGUUUGGUAGGAGAAAAAUUGC (structured_RNA) [L-mir-363] | – | 448
